Experimental data from publication PMC9531428, “The diurnal emission of floral scent in Oncidium hybrid orchid is controlled by CIRCADIAN CLOCK ASSOCIATED 1 (CCA1) through the direct regulation on terpene synthase” (BMC Plant Biology, 2022).

Columns and labels:
[1] = target: T1, terpene synthase (TPS; OncSBTPS) (Oncidium hybrid cultivar, UniProt A0A3R5SMM9); assay: GC-MS (SPME) of reaction products; format: biochemical; settings: 37 °C, 4 h; products linalool and ocimene
T1 construct: recombinant purified protein
T1 sequence (A0A3R5SMM9 1-551): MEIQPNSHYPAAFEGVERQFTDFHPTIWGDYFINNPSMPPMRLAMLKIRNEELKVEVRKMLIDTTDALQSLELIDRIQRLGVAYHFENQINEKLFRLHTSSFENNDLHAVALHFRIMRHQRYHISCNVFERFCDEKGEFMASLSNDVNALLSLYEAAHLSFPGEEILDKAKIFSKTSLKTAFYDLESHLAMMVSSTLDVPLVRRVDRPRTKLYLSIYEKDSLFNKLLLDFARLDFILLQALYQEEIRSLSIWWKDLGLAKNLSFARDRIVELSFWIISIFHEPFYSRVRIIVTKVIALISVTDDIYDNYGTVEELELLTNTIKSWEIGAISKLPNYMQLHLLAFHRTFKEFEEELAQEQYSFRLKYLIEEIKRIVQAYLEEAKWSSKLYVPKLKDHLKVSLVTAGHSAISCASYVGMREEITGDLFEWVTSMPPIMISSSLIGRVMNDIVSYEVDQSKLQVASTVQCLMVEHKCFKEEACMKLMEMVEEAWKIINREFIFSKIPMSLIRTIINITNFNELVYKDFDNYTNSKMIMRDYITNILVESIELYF

OncSBCCA1 [2] = target: T2, OncSBCCA1 (Oncidium hybrid Sharry Baby, UniProt A0A7L5RYG3 1-622); assay: EMSA; 0-15 ug CCA1 in 10 uL; BSA; 10 uL with 2 uL 5X buffer (5X: 50 mM Tris-HCl, 750 mM KCl, 2.5 mM EDTA, 62.5% glycerol), i.e. 1X 10 mM Tris-HCl, 150 mM KCl, 0.5 mM EDTA, 12.5% glycerol; BSA; 30 min; pH and temperature not stated; native PAGE in 0.5X TAE, 150 V; settings: protein: recombinant; tags: His-tag (pET28a); label: 6-FAM (ligated with T4 ligase)
T2 sequence (A0A7L5RYG3 entry or part of it): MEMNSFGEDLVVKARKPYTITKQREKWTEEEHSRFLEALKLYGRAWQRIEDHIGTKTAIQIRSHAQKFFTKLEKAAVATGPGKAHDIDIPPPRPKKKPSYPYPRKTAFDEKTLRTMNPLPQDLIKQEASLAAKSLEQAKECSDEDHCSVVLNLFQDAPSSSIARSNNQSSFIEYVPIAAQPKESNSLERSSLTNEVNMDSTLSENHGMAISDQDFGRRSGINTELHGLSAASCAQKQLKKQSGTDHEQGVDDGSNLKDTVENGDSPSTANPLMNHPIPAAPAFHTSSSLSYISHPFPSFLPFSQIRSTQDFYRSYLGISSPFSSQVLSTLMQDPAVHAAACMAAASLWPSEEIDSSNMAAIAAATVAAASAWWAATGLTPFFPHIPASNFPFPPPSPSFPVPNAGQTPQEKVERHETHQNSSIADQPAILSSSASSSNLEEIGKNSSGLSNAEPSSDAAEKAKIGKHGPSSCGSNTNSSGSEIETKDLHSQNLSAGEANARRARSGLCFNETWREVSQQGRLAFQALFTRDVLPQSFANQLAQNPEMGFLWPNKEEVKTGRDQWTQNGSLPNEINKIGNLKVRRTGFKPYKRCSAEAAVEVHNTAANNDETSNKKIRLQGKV

OncSBCCA1 [3] = target: T2, OncSBCCA1; assay: competition; 50x unlabeled competitor abolished the CCA1-probe signal; 10 uL with 2 uL 5X buffer (5X: 50 mM Tris-HCl, 750 mM KCl, 2.5 mM EDTA, 62.5% glycerol), i.e. 1X 10 mM Tris-HCl, 150 mM KCl, 0.5 mM EDTA, 12.5% glycerol; BSA; 30 min; pH and temperature not stated; native PAGE in 0.5X TAE, 150 V; settings: protein: recombinant; tags: His-tag (pET28a)

**Q.** With CC(C)=CCC/C(C)=C/COP(=O)(O)OP(=O)(O)O [GDP, geranyl diphosphate] as the molecule, how does the “GC-MS (SPME) of reaction products” value [1] read?
**A.** TPS recombinant protein was purified, then fed with the precursor GDP

B1: CBS probe (TPS promoter, 24-mer) (dsDNA)
DNA 1: TATTTTAGAGATTTTTACATACAT
DNA 2: ATGTATGTAAAAATCTCTAAAATA
**Q.** Does B1 bind (OncSBCCA1 [2])?
**A.** binds

B2: unlabeled CBS competitor (24-mer) (dsDNA)
DNA 1: TATTTTAGAGATTTTTACATACAT
DNA 2: ATGTATGTAAAAATCTCTAAAATA
**Q.** Does B2 bind (OncSBCCA1 [3])?
**A.** binds
